Test results: patent publication US20020018783A1

Target: endogenous CD28 (human, on Jurkat cells and primary T lymphocytes) (human) (UniProt P10747)
Assay: cell-based or functional assay

anti-CD28 Mab 28.2 (antibody) was tested, and the % of dead cells, 3G6-CD28 transduced T lymphocytes, OKT3/28.2, day 3 (trypan blue) was 10%, the % of dead cells, NTP transduced T lymphocytes, OKT3/28.2, day 6 (trypan blue) was 15% and the IL-2 secretion with PMA and ionomycin (ELISA, 24 hours), Jurkat-NTP was 960 pg/mL. For the same substance, the IL-2 secretion with PMA and ionomycin (ELISA, 24 hours), both cell populations was 3 fold.
